In US20210347908A1 (ELPISCIENCE SUZHOU BIOPHARMA, published 2021):

Key:
[1] = target: T1, full length cyno SIRPα stably expressed on CHOK1 cells (cynomolgus monkey, UniProt A0A2K5VYQ9 31-507); assay: FACS on CHOK1 cells
T1 construct: whole, on cells; also called CHOK1-cyno SIRPα-2A2 cells; CHOK1-cyno SIRPα
T1 sequence: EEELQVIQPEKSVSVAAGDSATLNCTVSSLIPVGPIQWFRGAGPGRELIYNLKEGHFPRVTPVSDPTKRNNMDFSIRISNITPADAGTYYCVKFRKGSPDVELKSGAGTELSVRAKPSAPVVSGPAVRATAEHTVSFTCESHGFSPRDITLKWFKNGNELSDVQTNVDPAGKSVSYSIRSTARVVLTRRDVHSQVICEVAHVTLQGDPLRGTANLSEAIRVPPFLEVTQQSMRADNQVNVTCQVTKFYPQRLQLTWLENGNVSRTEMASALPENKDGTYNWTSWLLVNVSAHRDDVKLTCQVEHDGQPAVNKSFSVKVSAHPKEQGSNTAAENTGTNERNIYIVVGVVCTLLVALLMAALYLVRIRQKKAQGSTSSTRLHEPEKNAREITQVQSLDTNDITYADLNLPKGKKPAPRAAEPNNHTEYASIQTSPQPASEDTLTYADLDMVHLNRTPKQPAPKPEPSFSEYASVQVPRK
Protocol: Species cross reactivity of the purified hybridoma antibodies against human, cyno and mouse SIRPα was determined by FACS assay using CHOK1-human SIRPα v1-1B4 cells, CHOK1-cyno SIRPα-2A2 cells, and CHOK1-C57BL/6 mouse SIRPα-2.22 cells, which stably expressing SIRPα protein. Briefly the antibodies were incubated with 2×10⁵ target cells at 4° C. for 1 hour. After washing, fluorescence labeled anti-mouse or anti-human IgG 2nd antibody (Life Technologies) was added and incubated at 4° C. for 1 hour. Geometric median fluorescence intensity was detected and EC₅₀ was calculated. In particular, it is noted, in contrast to the other antibodies tested in the same experiment, 060 cannot bind with cyno SIRPα and 035 has cross reactivity against C57BL/6 mouse SIRPα.
The purified chimeric antibodies were applied for binding specificity analysis and species cross reactivity analysis (refer to methods described in Example 3.3 and 3.4). FIGS. 1A to 1D show binding specificity of anti-SIRPα chimeric antibodies against recombinant proteins of human SIRPα v1 ECD (A), human SIRPα v2 ECD (B), human SIRPβ ECD (C) and human SIRPγ ECD (D) as measured by ELISA analysis.

[2] = target: T2, biotin labeled soluble human SIRPα v1 ECD recombinant protein (human, UniProt P78324 31-373, biotin labeled); assay: competitive ELISA; competitor 022
T2 construct: extracellular domain
T2 sequence (P78324 31-373): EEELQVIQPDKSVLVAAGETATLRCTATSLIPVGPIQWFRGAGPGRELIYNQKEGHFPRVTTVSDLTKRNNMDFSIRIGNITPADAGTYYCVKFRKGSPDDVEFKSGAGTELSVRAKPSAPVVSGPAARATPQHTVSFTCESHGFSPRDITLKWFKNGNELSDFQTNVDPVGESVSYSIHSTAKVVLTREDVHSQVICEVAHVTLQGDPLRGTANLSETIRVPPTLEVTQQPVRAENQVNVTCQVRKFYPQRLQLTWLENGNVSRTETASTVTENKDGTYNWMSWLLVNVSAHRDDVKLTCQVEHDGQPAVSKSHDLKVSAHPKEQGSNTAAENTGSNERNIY
Protocol: (§1) Competitive ELISA assay was used for epitope binning of 9 functional antibodies. Briefly excessive competitor antibody and biotin labeled soluble human SIRPα v1 ECD recombinant protein were co-incubated with ELISA microplate coated antibody. After washing, HRP-SA was added and incubated at 37° C. for 1 hour. Then, […] of TMB solution (Biotechnology) was added. After incubation for 15 minutes at room temperature, the reaction was stopped by the addition of […] of 1N HCl. OD 450 nm was read. Competition ratio was calculated. The antibodies that can compete each other for binding to SIRPα have the similar binding epitope.

[3] = target: T2, biotin labeled soluble human SIRPα v1 …; assay: competitive ELISA; competitor 032
Protocol: as §1

[4] = target: T3, Fc tagged human SIRPα v1 ECD recombinant protein (human, UniProt P78324 31-370); assay: ELISA
T3 construct: range 1-370; cloned range M1-R370 includes the signal peptide; also called hSIRPα V1; not shown: human IgG Fc region (hFc) of the pCPC vector
T3 sequence (P78324 31-370 limits assumed): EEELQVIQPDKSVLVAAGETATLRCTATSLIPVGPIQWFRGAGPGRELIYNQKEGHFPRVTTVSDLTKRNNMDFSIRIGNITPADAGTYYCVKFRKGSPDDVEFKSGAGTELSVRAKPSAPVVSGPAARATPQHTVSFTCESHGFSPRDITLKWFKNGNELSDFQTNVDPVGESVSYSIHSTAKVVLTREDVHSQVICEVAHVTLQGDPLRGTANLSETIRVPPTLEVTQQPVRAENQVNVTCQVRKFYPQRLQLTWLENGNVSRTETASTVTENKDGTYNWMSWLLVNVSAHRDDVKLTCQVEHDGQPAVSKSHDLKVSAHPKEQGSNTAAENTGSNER
Protocol: (§2) Binding specificity of the purified hybridoma antibodies against SIRP family members was detected by ELISA assay using recombinant proteins of Fc tagged human SIRPα v1 ECD, human SIRPα v2 ECD, human SIRPβ ECD and human SIRPγ ECD. Briefly the antibodies were incubated with ELISA microplate coated antigens at 37° C. for 1 hour. After washing, horseradish peroxidase (HRP) labeled anti-mouse or anti-human IgG 2nd Ab (Sigma) was added and incubated at 37° C. for 1 hour. Then, 100 μl/well of TMB solution (Biotechnology) was added. After incubation for 15 minutes at room temperature, the reaction was stopped by the addition of 50 μl of 1N HCl. OD 450 nm was read and EC₅₀ was calculated. Other than 060 and HEFLB, all of the antibodies as tested can bind with both human SIRPα v1 and SIRPα v2. 060 and HEFLB can bind with human SIRPα v1 but not v2. Other than 055, all of the antibodies as tested can bind with human SIRPβ. In comparison with other known anti-SIRPα antibodies, only 022, 035 and 050 can bind with human SIRPγ weakly.

[5] = target: T4, Fc tagged human SIRPβ ECD recombinant protein (human, UniProt O00241 30-371); assay: ELISA
T4 construct: range 1-371; cloned range includes the signal peptide; also called hSIRPβ; not shown: human IgG Fc region (hFc) of the pCPC vector
T4 sequence (O00241 30-371 limits assumed, form in doubt): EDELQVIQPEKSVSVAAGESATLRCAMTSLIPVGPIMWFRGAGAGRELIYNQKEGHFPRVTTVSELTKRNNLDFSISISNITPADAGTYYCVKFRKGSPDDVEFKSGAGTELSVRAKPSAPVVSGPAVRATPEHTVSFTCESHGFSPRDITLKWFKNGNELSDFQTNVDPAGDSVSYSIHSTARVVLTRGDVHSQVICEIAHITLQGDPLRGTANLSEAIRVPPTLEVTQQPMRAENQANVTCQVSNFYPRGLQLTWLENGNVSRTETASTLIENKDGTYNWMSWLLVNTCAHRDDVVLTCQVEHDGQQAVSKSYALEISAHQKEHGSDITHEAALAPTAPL
Protocol: as §2

[6] = target: T5, Fc tagged human SIRPα v2 ECD recombinant protein (human); assay: ELISA
T5 construct: range 1-369; cloned range M1-R369 includes the signal peptide; also called hSIRPα V2
Protocol: as §2

[7] = target: T6, Fc tagged human SIRPγ ECD recombinant protein (human, UniProt Q9P1W8 29-360); assay: ELISA
T6 construct: range 1-360; cloned range includes the signal peptide; also called hSIRPγ; not shown: human IgG Fc region (hFc) of the pCPC vector
T6 sequence (Q9P1W8 29-360 limits assumed, form in doubt): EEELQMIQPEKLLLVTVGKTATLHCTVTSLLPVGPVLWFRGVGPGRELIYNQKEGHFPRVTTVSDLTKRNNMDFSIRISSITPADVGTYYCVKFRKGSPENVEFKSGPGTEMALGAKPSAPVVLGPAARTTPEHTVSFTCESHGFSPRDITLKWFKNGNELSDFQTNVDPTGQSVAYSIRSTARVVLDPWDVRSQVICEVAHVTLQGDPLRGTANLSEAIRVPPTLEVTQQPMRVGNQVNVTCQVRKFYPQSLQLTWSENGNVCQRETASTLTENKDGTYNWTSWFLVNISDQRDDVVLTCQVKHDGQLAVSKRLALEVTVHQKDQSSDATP
Protocol: as §2

Binder | MFI at 10 nM [1] | % Competition [2] | % Competition [3] | EC50 [4] | EC50 [5] | EC50 [6] | binding result [1] | EC50 [7]
chimeric antibody 074c (antibody, V domains shown) VH: QVQLQQPRAELVKPGASVMLSCKASGYTFSSYWIHWVRQGPGQGLEWIGLIHPNSGNTDCSETFKNKATLTVDTSSSTAYMQLSSLASEDSAVYYCARDGASYDWFVHWGQGTLVTVSA VL: not shown | 12200 MFI |  |  |  |  |  |  | 
Antibody 074 (hybridoma antibody) (antibody, V domains shown, mouse hybridoma antibody) VH: QVQLQQPRAELVKPGASVMLSCKASGYTFSSYWIHWVRQGPGQGLEWIGLIHPNSGNTDCSETFKNKATLTVDTSSSTAYMQLSSLASEDSAVYYCARDGASYDWFVHWGQGTLVTVSA VL: not shown |  | -5% | 34% | 0.02 nM | 0.02 nM | 0.02 nM |  | 
chimeric antibody 060c (antibody, V domains shown) VH: QVQLKESGPGLVAPSESLSITCTVSGFSLTNYDISWIRQSPGKGLEWLGVIWTGGDTNFNSAFMSRLSISKDKSKSQVFLKLNSLQTDDTAIYYCVRVQYFGGSYGPMDYWGQGISVTVSS VL: DIQMTQASSYLSVSLGGRVTITCEASDHINDWLAWYQQTPGNAPRLLISGATSLETGVPSRFSGSGSGKDYTLSITSLQTEDIATYYCQQYWNTPLTFGAGTRLELK |  |  |  |  |  |  | no binding (tested: 10 nM) | 
Antibody 060 (hybridoma antibody) (antibody, V domains shown, mouse hybridoma antibody) VH: QVQLKESGPGLVAPSESLSITCTVSGFSLTNYDISWIRQSPGKGLEWLGVIWTGGDTNFNSAFMSRLSISKDKSKSQVFLKLNSLQTDDTAIYYCVRVQYFGGSYGPMDYWGQGISVTVSS VL: DIQMTQASSYLSVSLGGRVTITCEASDHINDWLAWYQQTPGNAPRLLISGATSLETGVPSRFSGSGSGKDYTLSITSLQTEDIATYYCQQYWNTPLTFGAGTRLELK |  | 10% | 4% | 0.03 nM | 0.04 nM |  |  | 
reference antibody HEFLB (antibody, V domains shown) VH: EVQLVQSGAEVKKPGESLRISCKASGYSFTSYWVHWVRQMPGKGLEWMGNIDPSDSDTHYSPSFQGHVTLSVDKSISTAYLQLSSLKASDTAMYYCVRGGTGTLAYFAYWGQGTLVTVSS VL: DVVMTQSPLSLPVTLGQPASISCRSSQSLVHSYGNTYLYWFQQRPGQSPRLLIYRVSNRFSGVPDRFSGSGSGTDFTLKISRVEAEDVGVYYCFQGTHVPYTFGGGTKVEIK |  | 4% | 91% | 0.17 nM | 0.17 nM |  |  | 
chimeric antibody 001c (antibody, V domains shown) VH: EVKLEESGGGLVQPGGSMKLSCVASGFTFRNYWMNWVRQSPERGLEWIAEISLKSNTYATHYAESVKGRFAISRDGSKSSFYLQMNDLRAEDTGIYYCTTFTKVVADWHLDVWGAGTTVTVSS VL: DVLMTQTPLSLPVSLGDQASISCRSSQNIVHSNGNTYLEWYLQKPGQSPKLLIYKVSNRFSGVPDRFSGSGSGTDFTLRISRVEAEDLGVYYCFQGSHVPFTFGSGTKLEIK | 24900 MFI |  |  |  |  |  |  | 
Antibody 001 (hybridoma antibody) (antibody, V domains shown, mouse hybridoma antibody) VH: EVKLEESGGGLVQPGGSMKLSCVASGFTFRNYWMNWVRQSPERGLEWIAEISLKSNTYATHYAESVKGRFAISRDGSKSSFYLQMNDLRAEDTGIYYCTTFTKVVADWHLDVWGAGTTVTVSS VL: DVLMTQTPLSLPVSLGDQASISCRSSQNIVHSNGNTYLEWYLQKPGQSPKLLIYKVSNRFSGVPDRFSGSGSGTDFTLRISRVEAEDLGVYYCFQGSHVPFTFGSGTKLEIK |  | -19% | 96% | 0.07 nM | 0.12 nM | 0.07 nM |  | 
chimeric antibody 032c (antibody, V domains shown) VH: EVRLEESGGGLVQPGGSMKLSCVVSGFTFRNYWMNWVRQSPERGLEWIAEITLKSNTYATHYAESVKGRFAISRDDSKSSFYLQMNDLRPEDTGIYYCTTFTKVVADWHLDVWGAGTTVTVSS VL: DVLMTQTPLSLPVNLGDQASISCRSSQNIVHSNGNTYLEWYLQKPGQSPKLLIYKVSNRFSGVPDRFSGSGSGTDFTLRISRVEAEDLGVYYCFQGSHVPFTFGSGTKLEIK | 19000 MFI |  |  |  |  |  |  | 
Antibody 032 (hybridoma antibody) (antibody, V domains shown, mouse hybridoma antibody) VH: EVRLEESGGGLVQPGGSMKLSCVVSGFTFRNYWMNWVRQSPERGLEWIAEITLKSNTYATHYAESVKGRFAISRDDSKSSFYLQMNDLRPEDTGIYYCTTFTKVVADWHLDVWGAGTTVTVSS VL: DVLMTQTPLSLPVNLGDQASISCRSSQNIVHSNGNTYLEWYLQKPGQSPKLLIYKVSNRFSGVPDRFSGSGSGTDFTLRISRVEAEDLGVYYCFQGSHVPFTFGSGTKLEIK |  | 1% | 94% | 0.03 nM | 0.02 nM | 0.04 nM |  | 
Antibody 002 (hybridoma antibody) (antibody, V domains shown, mouse hybridoma antibody) VH: EVKLEESGGGLVQPGGSMILSCVASGFTFRNYWMNWVRQSPERGLEWIAEITLKSNTYATHYAESVKGRFAISRDDSKSSFYLQMNDLRPEDTGIYYCTTFTKVVADWHLDVWGAGTTVTVSS VL: DVLMTQTPLSLPVSLGDQASISCRSSQNIVHSNGNTYLEWYLQKPGQSPKLLIYKISNRFSGVPDRFSGSGSGTDFTLRISRVEAEDLGVYYCFQGSHVPFTFGSGTKLEIQ |  | -5% | 92% | 0.11 nM | 0.16 nM | 0.1 nM |  | 
chimeric antibody 002c (antibody, V domains shown) VH: EVKLEESGGGLVQPGGSMILSCVASGFTFRNYWMNWVRQSPERGLEWIAEITLKSNTYATHYAESVKGRFAISRDDSKSSFYLQMNDLRPEDTGIYYCTTFTKVVADWHLDVWGAGTTVTVSS VL: DVLMTQTPLSLPVSLGDQASISCRSSQNIVHSNGNTYLEWYLQKPGQSPKLLIYKISNRFSGVPDRFSGSGSGTDFTLRISRVEAEDLGVYYCFQGSHVPFTFGSGTKLEIQ | 17100 MFI |  |  |  |  |  |  | 
chimeric antibody 055c (antibody, V domains shown) VH: EVKLVESEGGLVQPGDSMKLSCTASGFTFSDYFMTWIRQVPEKGLEWIANVNYDGRSTYYLDSLKSRFIISRDNANNILYLQMSSLKSEDTATYYCAREGSQTPLYAVDYWGQGTSVTVSS VL: DIVMTQSQKFMSTTVGDRVNITCKASQNVGTAVAWYQQKPGQSPKLLIYLASNRYTGVPDRFTGSGSGTDFTLTVSDMRSEDLADYFCQQYSIYPFTFGSGTKLEIK | 8060 MFI |  |  |  |  |  |  | 
Antibody 035 (hybridoma antibody) (antibody, V domains shown, mouse hybridoma antibody) VH: QIQLVQSGPELRKPGETVKISCKASGYSFTNYAMNWVKQAPGKVLKWMGFINTYTGEPTYADDFKGRFAFSLETSASTAYLQINNLKNEDTATYFCTRTRGYYDFDGGAFDYWGQGTSLTVSS VL: DIVMTQSQKFMSTSIGDRVSVTCKASQNVGTHLAWYQQKPGQSPKALIFSASYRYIGVPDRFTGSGSGTDFTLTITNVQSEDLAEYFCQQYNTYPLTFGAGTKLELK |  | -1% | 89% | 0.03 nM | 0.02 nM | 0.04 nM |  | 2.22 nM
